In patent US20240279335A1, “CD28 SHEDDING BLOCKING AGENTS” (BIOND BIOLOGICS LTD., priority 2021, published 2024):
Residue numbers refer to the chain shown, from its start. “And” between values parts separate entries of the source, which are not always exact repeats. Equal entries are not always repeated. Where two headings read alike, the source gives them in different places.

B1: 2A1-Hinge: VHH 2A1 with human IgG1 hinge region downstream, dimeric, SEQ ID NO: 114 (protein)
chain: EVQLVESGGGLVQAGESLRLSCAASGSIASINAMGWYRQAPGSQRELVAAISGGGDTYYADSVKGRFTISRDNAKTTVYLQMNSLRPEDTAVYYCVVDLYGSDYWDWGQGTQVTVSSDKTHTCPPCPAPEL
modifications: dimeric
B2: VHH 2A1 (VHH)
VHH: EVQLVESGGGLVQAGESLRLSCAASGSIASINAMGWYRQAPGSQRELVAAISGGGDTYYADSVKGRFTISRDNAKTTVYLQMNSLRPEDTAVYYCVVDLYGSDYWDWGQGTQVTVSS
notes: Monomeric llama VHH; also called VHH #2A01; monomeric 2A1
B3: VHH 6B10: affinity matured variant of VHH 2A1, SEQ ID NO: 28 (protein)
VHH: B2 VHH with L99T, Y100H, G101R, S102G, D103V, D106Y
B4: VHH 9B3 (VHH)
VHH: EVQLVESGGGLVQAGESLRLSCAASGSIASIRTMAWYRQAPGSQRELVAAISSGREVYYADSVKGRFTISRDNAKTTVYLQMNSLRPEDTAVYYCVVDMYWQDYWWWGQGTQVTVSS
notes: also called 9B03
B5: VHH 11E11 (VHH)
VHH: B4 VHH with R32N, T33S, S53N, G54A, M99V, W101F, D103E, W106Y
B6: VHH 9A7 (VHH)
VHH: EVQLVESGGGLVQAGESLRLSCAASGSIASINSMGWYRQAPGSQRELVAAISDRSEKYYADSVKGRFTISRDNAKTTVYLQMNSLRPEDTAVYYCVVDHHHSDWWTWGQGTQVTVSS
notes: also called 9A07
B7: VHH 5A3 (VHH)
VHH: B2 VHH with A33S, S52N, G53E, G54K, G55L, D56L, T57I
notes: also called 5A03
B8: VHH 11G11 (VHH)
VHH: EVQLVESGGGLVQAGESLRLSCAASGSIASINTMAWYRQAPGSQRELVAAINSISRTYYADSVKGRFTISRDNAKTTVYLQMNSLRPEDTAVYYCVVDVTKEDYWYWGQGTQVTVSS
B9: VHH 10E1 (VHH)
VHH: B8 VHH with N32K, S53Y, S55K, R56E, T57I
notes: also called 10E01
B10: VHH 12A09: affinity matured variant of VHH 2A1, SEQ ID NO: 32 (protein)
VHH: B8 VHH with N32K, A49T, N52A, I54D, S55N, T57K

Columns and labels:
[1] = target: human CD28 on the cell surface (membranal CD28) (human) (UniProt P10747); test: flow cytometry on human CD3 cells, 300 nM, anti-human IgG VHH Alexa Fluor 647
[2] = target: human CD28 on the cell surface (membranal CD28) (human) (UniProt P10747); test: as above; remark: listed apart in the source
[3] = target: T1, soluble CD28 (sCD28) from SEB stimulated PBMC (Homo sapiens, UniProt P10747); type: cell-based
T1 construct: PBMCs were isolated from fresh blood samples of healthy donors; endogenous in cells; host or cells: human PBMCs from healthy donors, SEB-stimulated

isolated CD3 T cells = test: T cell stimulation with HEK/CD80/scOKT3 artificial antigen presenting cells (aAPC-CD80), IL-2 secretion; type: cell-based, human; settings: various concentrations, FIG. 13A-13F, 17A-17F
Experimental: (§1) Cytokines ELISA—Commercial ELISA kits were used for quantitation of the amount of human interferon-gamma (Biolegend, Cat. No. 430103), human interleukin 2 (Biolegend, Cat. No. 431802) and human CD28 (R&D system, Cat. No. DY342). Cell Proliferation and viability (MTT assay) was conducted to assure validity of results and performed according to manufacturer instructions (Roche, Cat. No. 11465007001).
T cells stimulation with HEK/CD80/scOKT3 artificial antigen presenting cells (aAPC-CD80)—1×10^5 isolated CD3 T cells (from healthy donors) were stimulated with 0.5×10^4 mitomycin treated aAPC-CD80 (HEK293 cells stably transfected with CD80 and scOKT3-CD14 chimera plasmids) for 24-72 hr at 37° C. Treatments of VHH targeting CD28 or controls were added at the indicated concentration in soluble form. When stated, VHH #3C04 (raised against human HER2) was used as an “irrelevant control” and VHH #12B09 was used as a “positive control” for a nanobody with CD28 antagonist effect. Assays were conducted in complete RPMI-1640 media supplemented with 10% FCS and pen/strep mixture.

[4] = target: T2, human CD28-Fc chimera (R&D, Cat. No. 342-CD) (human, UniProt P10747 19-152); test: ELISA: serial dilution of the agent on recombinant human CD28-Fc fusion protein, OD read
T2 construct: Bought reagent; also called recombinant human CD28-Fc fusion protein; recombinant CD28 fused to an Fc backbone; Fc part of the bought chimera not given

[5] = tested on: isolated T cells mixed with mature dendritic cells; test: Allogeneic mixed lymphocyte reaction (MLR), cytokine secretion; type: cell-based, human; settings: monomeric affinity matured VHHs; especially at high concentrations; FIG. 2
Experimental: as §1
Dendritic cell differentiation—Monocytes were cultured at a density of 1×10^6/mL in RPMI medium with growth factors that was refreshed at day 3 and at day 6. […] When needed the iDCs were further differentiated into mature dendritic cells by addition of 100 ng/mL LPS (Sigma, Cat. No. L4391) and 20 ng/mL interferon-gamma (R&D systems, Cat. No. 285-IF) for 48 hrs. The generated cell populations were tested for the indicated phenotypes by FACS analysis of relevant markers and by analysis of secretion of characteristic cytokines.
Allogeneic Mixed Lymphocyte Reaction—0.1×10^6 T cells were mixed with […] dendritic cells from different donor for 24-96 hours at 37° C. with/without the indicated concentration of treatments. Assays were conducted in complete RPMI-1640 media supplemented with 10% FCS and pen/strep mixture. […]

CD28-Fc = target: T3, CD28-Fc (Homo sapiens, UniProt P10747); test: Biacore multi-cycle kinetics on immobilized CD28-Fc; type: binding; settings: Table 3, monomeric VHH clones; for ka: affinity constants to CD28-Fc
T3 construct: Fc
Experimental: Biacore—Affinity clones derived from VHH #2A01 affinity maturation libraries was determined using CD28-Fc immobilized on a CM5 Series S sensor chip. Multi-cycle kinetics measurements were done using 5 step dilutions of the analytes (VHH clones) from 200 nM down to 12.5 nM. Kinetic parameters and affinity values were calculated using the 1:1 binding model in Biacore T 200 E valuation software 3.1 by introducing a double (blank channel and blank sample) subtraction.

[6] = target: T2, human CD28-Fc chimera (R&D, Cat. No. …); test: SPR (Biacore), CD28-Fc immobilized on CM5 chip, VHH as analyte, multi-cycle kinetics, 1:1 model

Molecule	kd (CD28-Fc; CD28-Fc) [s⁻¹]	ka (CD28-Fc) [M⁻¹ s⁻¹]	Kd [6]	koff [6] [s⁻¹]	kon [6] [M⁻¹ s⁻¹]	further results
Isotype hIgG4 (antibody)						MFI [1]: 71.9 MFI; MFI [2]: 116 MFI
CC#CCOc1ccc(S(=O)(=O)N2CCSC(C)(C)[C@@H]2C(=O)NO)cc1 [TMI, reference compound]						sCD28 levels / inhibition of sCD28 production [3]: greatly reduced sCD28 levels
B1						sCD28 levels / inhibition of sCD28 production [3]: did inhibit sCD28 production, but only at levels that were comparable to the 2A1 monomer; IL-2 secretion, antagonistic effect (isolated CD3 T cells): no effect on IL-2 secretion
B2						EC50 (read off the curve) [4]: ~40 nM
B3						blocking of CD28 shedding compared to the parental VHH [3]: superior to the parental VHH; proinflammatory cytokine (IFN gamma) secretion in MLR, antagonistic effect [5]: robust antagonistic effect
B4	7.17e-08	112000	0.000642 nM	7.17e-08	112000	
B5	1.64e-05	46600	0.352 nM	1.64e-05	46600	
B6	9.78e-06	51500	0.19 nM	9.78e-06	51500	
B7	3.78e-05	33800	1.12 nM	3.78e-05	33800	blocking of CD28 shedding compared to the parental VHH [3]: superior to the parental VHH; proinflammatory cytokine (IFN gamma) secretion in MLR, antagonistic effect [5]: robust antagonistic effect
B8	5.77e-06	47800	0.12 nM and 0.121 nM	5.77e-06	47800	
B9	2.84e-06	44400	0.0639 nM	2.84e-06	44400	
B10	3.43e-07	83400				Kd (CD28-Fc; CD28-Fc): 0.0041 nM
